Laboratory results taken from publication doi:10.1101/2024.08.06.606761 (bioRxiv, 2024).

Legend:
Experiment in all cases: fluorescence polarisation
[1] = biological target: talin-1 (TLN1) PTB domain, tag cleaved (FP) (human)
[2] = biological target: SARS-CoV-2 NSP3 ADRP domain, tag cleaved (FP) (SARS-CoV-2)
[3] = biological target: SARS-CoV-2 NSP3 UBl1 domain, tag cleaved (FP) (SARS-CoV-2)
[4] = biological target: G3BP1 NTF2-like domain, tag cleaved (FP) (human, UniProt Q13283 11-133)
[5] = biological target: SARS-CoV-2 non-structural protein (NSP) 9, tag cleaved (FP) (SARS-CoV-2)
[6] = biological target: SARS-CoV-2 NSP3 SUD-M domain, tag cleaved (FP) (SARS-CoV-2)

Chain of talin-1 (TLN1) PTB domain, tag cleaved (FP) (human) (Q9Y490 whole entry, the tested form may be a part): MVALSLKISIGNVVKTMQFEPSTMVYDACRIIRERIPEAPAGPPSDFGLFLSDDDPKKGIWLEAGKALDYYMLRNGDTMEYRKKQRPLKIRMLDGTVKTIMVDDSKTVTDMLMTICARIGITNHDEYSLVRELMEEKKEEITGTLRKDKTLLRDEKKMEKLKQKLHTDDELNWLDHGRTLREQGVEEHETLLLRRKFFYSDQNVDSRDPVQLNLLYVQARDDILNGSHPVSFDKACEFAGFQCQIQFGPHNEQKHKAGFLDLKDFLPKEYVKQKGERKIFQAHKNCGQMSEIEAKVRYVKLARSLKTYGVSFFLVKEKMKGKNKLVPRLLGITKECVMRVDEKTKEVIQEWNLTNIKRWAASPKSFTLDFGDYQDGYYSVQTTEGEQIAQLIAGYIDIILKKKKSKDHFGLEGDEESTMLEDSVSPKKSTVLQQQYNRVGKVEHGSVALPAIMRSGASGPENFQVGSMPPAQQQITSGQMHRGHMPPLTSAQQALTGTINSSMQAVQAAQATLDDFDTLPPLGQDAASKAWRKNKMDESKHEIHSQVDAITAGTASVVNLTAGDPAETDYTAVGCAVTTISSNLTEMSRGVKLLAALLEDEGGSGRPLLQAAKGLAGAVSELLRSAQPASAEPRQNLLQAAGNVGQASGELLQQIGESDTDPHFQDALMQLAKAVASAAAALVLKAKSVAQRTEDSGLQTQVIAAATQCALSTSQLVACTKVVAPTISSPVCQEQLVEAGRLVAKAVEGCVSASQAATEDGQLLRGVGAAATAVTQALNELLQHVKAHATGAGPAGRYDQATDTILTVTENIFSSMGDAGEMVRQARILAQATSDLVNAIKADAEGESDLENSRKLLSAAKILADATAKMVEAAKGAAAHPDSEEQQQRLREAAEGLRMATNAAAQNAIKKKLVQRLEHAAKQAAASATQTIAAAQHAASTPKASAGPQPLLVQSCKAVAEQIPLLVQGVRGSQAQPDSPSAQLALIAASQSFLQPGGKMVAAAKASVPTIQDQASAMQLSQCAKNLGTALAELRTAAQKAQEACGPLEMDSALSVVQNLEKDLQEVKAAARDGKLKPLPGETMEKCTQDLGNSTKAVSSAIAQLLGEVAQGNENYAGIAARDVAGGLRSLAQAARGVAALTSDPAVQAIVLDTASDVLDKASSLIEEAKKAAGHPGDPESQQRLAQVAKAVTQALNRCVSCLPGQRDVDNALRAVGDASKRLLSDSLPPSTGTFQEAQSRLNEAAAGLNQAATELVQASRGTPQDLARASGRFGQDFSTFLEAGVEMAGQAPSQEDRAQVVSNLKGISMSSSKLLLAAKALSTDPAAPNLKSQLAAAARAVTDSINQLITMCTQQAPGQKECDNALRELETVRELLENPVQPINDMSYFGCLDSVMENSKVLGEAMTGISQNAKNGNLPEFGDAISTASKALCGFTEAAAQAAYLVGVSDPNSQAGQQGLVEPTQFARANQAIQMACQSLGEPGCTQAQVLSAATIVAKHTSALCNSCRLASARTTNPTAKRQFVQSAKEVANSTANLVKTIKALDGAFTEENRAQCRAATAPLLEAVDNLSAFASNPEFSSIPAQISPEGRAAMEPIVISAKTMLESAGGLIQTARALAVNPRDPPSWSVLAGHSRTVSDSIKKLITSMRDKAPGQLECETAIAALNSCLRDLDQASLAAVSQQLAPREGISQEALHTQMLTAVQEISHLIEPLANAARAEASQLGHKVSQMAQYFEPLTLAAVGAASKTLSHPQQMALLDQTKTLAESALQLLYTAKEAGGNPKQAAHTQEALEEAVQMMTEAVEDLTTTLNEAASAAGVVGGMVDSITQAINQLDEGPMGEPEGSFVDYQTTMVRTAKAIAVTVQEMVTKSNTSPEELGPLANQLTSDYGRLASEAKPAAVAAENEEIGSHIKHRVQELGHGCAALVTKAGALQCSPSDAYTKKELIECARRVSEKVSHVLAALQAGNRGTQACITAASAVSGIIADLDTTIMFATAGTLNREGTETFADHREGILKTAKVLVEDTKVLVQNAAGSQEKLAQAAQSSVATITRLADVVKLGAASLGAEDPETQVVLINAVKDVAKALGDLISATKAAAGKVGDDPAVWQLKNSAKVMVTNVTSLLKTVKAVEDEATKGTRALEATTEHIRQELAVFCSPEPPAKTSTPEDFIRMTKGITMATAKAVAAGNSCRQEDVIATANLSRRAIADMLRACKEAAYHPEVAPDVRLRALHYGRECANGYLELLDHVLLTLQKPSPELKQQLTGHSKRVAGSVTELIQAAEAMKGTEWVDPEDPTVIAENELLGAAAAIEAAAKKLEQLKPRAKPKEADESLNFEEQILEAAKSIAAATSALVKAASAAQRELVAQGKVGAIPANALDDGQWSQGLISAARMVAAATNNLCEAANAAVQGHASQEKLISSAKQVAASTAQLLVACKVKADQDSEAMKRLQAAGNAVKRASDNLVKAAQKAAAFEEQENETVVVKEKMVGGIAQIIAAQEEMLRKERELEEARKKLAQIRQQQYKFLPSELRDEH
Chain of G3BP1 NTF2-like domain, tag cleaved (FP) (Q13283 11-133): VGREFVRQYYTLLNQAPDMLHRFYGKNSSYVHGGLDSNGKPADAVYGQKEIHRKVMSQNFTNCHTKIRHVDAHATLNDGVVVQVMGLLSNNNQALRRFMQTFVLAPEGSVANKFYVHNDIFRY

Molecule | Kd [1] [µM] | further results
TPTE2 92-107 F97W peptide (from UniProt Q6XPS3 92-107) | 0.1 | –
TPTE2 92-107 F97Y peptide (from UniProt Q6XPS3 92-107) | 150 | –
TPTE2 92-107 I104A peptide (from UniProt Q6XPS3 92-107) | 18 | –
TPTE2 92-107 S100N peptide (from UniProt Q6XPS3 92-107) | 1.7 | –
TPTE2 92-107 Y103W peptide (from UniProt Q6XPS3 92-107) | 22 | –
wild-type MBOAT1 16-31 peptide (from UniProt Q6ZNC8 16-31) | – | Kd [2]: 49 µM
wild-type NCOA2 1073-1088 peptide (from UniProt Q15596 1073-1088) | – | Kd [3]: 39 µM
wild-type TPTE2 92-107 peptide | 4.9 | –
APRITFGGPSDSTGS [wildtype SARS-CoV-2 N 12-26 peptide] | – | Kd [4]: 2.3 µM
QGAWLGAPEPWEPL (modifications not checked) [wild-type NOTCH4 peptide (FP)] | – | Kd [5]: 72 µM
QFTEEDLHFVLYGVTPSL (modifications not checked) [wild-type PRDM14 peptide (FP)] | – | Kd [6]: 74 µM
